Test [1] has as its target Triosephosphate isomerase from G. gallus (G. gallus) (UniProt P00940). The test can be described thus: NMR titration; 2.5 μM [U-15N]-TPI with 1 mM GAP, titrated with 0-30 μM ribosomes; integrated amide proton envelope (6.30-10.54 ppm) of 1H-15N HSQC; 10 mM sodium phosphate pH 7.5, 0.1 M NaCl, 290 K; apparent Kd from the total binding equation with a nonspecific term; the paper calls it an upper limit to Kd.

Test [2] has the same target. The test can be described thus: NMR titration; 2.5 μM [U-15N]-TPI with 5 mM DHAP, titrated with 0-30 μM ribosomes; integrated amide proton envelope (6.30-10.54 ppm) of 1H-15N HSQC; 10 mM sodium phosphate pH 7.5, 0.1 M NaCl, 290 K; apparent Kd from the total binding equation with a nonspecific term; the paper calls it an upper limit to Kd.

Triosephosphate isomerase from G. gallus (G. gallus), sequence (P00940 whole entry): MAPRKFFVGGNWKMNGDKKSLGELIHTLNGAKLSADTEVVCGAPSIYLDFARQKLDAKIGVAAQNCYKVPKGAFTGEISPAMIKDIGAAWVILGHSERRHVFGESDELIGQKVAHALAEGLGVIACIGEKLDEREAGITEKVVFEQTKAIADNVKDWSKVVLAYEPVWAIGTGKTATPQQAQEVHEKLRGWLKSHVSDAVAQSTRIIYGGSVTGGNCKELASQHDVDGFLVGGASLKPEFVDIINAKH

On to “Intact 70S ribosomes from E. coli MRE600 (from UniProt P0A7K2 1-121; P0A7R1 1-149; P0A7J3 1-165; P0A7J7 1-142; P02413 1-144; P0C018 1-117; P0A7L3 1-118; P61175 1-110; P0AG67 1-557; P02358 1-135; P0A7W7 1-130; P0A7R9 1-129) (complex)”, for which the Kd was found to be 1.21 µM in test [1] and 1.05 µM in test [2].

The values above are taken from article PMC11284791.
